PMC6559209

Molecular target: YlHD, hydrophilic domain of the Yarrowia lipolytica group 3 LEA protein (Yarrowia lipolytica)
Assay: MST; HD labelled with RED-NHS at 2 uM; label-free LDH titrated, diluted from 71 uM; binding buffer 20 mM HEPES, 150 mM KCl, pH 7.4 (the legend says phosphate buffer); normal conditions; Monolith NT.115, 20% LED, 60% MST power

- Kd: 5.03 µM
Substance: lactate dehydrogenase (LDH) (enzyme)
